Assay results from patent US20250147051A1, “METHOD FOR DETECTING A TAU PROTEIN IN A SALIVA SAMPLE” (GTINVENT LIMITED, priority 2022, published 2025).

Columns and labels:
tau [1] = test: Western blot of mouse brain homogenates (WT, L66+/+, L1+/+); settings: 20 μg brain homogenate protein, 5-month-old WT, L1+/+ mice
Description: Protein equivalent to 20 μg from each brain extract was separated using 4-20% bis-tris gels and run in 1×MES buffer. […] A clear band is visible in the lanes containing L66^+/+ samples, but no other bands are detectable (WT or L1^+/+). […] Once again, a band having relative mobility of 65 kDa is visible in the L66 sample with no other reactive bands present.
This band most likely corresponds to endogenous mouse tau which is of a similar size. In the L66^+/+ samples, a second band running at approximately 68 kDa is also detected. The presence of numerous other bands indicates proteolytic truncation of tau within brain homogenates.

tau [2] = test: Capture ELISA of transgenic mouse plasma; settings: Line66 transgenic model; detection scAb with S1D12 mAb capture
Description: Plasma samples from WT, L1, L66+/− and L66+/+ of various ages (1.5-9 months) were taken as described. Mice were terminally anaesthetized using an overdose of sodium pentobarbital and blood was collected through cardiac puncture through a Plastipak syringe pre-rinsed with heparinised saline heparin (10 U/ml) (Heparin sodium salt; Sigma-Aldrich) and transferred into a plastic vial containing lithium heparin anticoagulant (Sarstedt Ltd.) Blood samples, kept on ice for no more than 30 minutes, were centrifuged to obtain plasma at 2000×g for 5 minutes at 6° C. Plasma samples were stored at −20° C.
For mouse plasma capture ELISA, 100 μL capture mAb was coated to the bottom of a black nunc 96 well ‘maxisorp’ plate at 2.5 μg/ml and incubated for 1 hour at 37° C. After washing and blocking as normal, several known standard solutions were set up in triplicate starting at 20 ng/ml of the desired protein before double diluted in the remaining wells. Mouse samples were added to wells in duplicate with a blank in between each sample group. Line1 plasma was diluted 1:10 before addition to plate to account for its high concentration while other samples were diluted 1:2 to account for potential matrix effects. […] The ELISA was developed using SuperSignal ELISA Femto Substrate (Thermo Scientific) and total luminescence was read on Clariostar Plus plate reader (BMG Labtech). […]

tau protein = test: Capture ELISA of transgenic mouse brain lysates; settings: S1D12 mAb capture, label = detection scAb, WT, L1, L66+/- and L66+/+
Description: Mouse brain lysates were prepared from wildtype, Line 1, Line 66+/+ and Line 66+/− (Melis et al., 2015, all surplus from Charles River, part of study R0144). All animals were female, 7-8 months old except Line 66+/+ which were 5 months old. […] The L1 cDNA construct (FIG. 23) contains human tau cDNA coding for amino acid residues 296-390 with a signal sequence and related sequences in a murine Thy-1 expression cassette. For brain lysate preparation, half brains were sectioned into four and the individual sections were homogenised in 400 μl of ice cold RIPA buffer (Cell signalling Technology) containing protease and phosphatase inhibitors. Total protein concentrations for individual samples were established by BCA-assay and each sample was subsequently diluted to 1 mg/ml for future experiments.
For capture ELISA, 100 μL S1D12 capture mAb was used to coat a nunc 96 well Maxisorp plate at 1 μg/ml and incubated for 1 hour at 37° C. Plate was washed as previously and then blocked for 1 hour at 37° C. in 2% MPBS. Brain homogenate samples (50 ng total protein) from each mouse type were added to the first wells and double diluted across the plate in PBS. These samples were left to incubate at RT for 1 hour. Various detection scAbs encompassing epitopes of interest were then added to the plate at 1 μg/ml and incubated for 1 h at RT. Secondary antibody used was anti-HuCk HRP and the assays were developed as described previously. Using S1D12 mAb capture and two separate scAb detectors, S-1G2 (FIG. 24A) and C-B7 (FIG. 24B), it was possible to differentiate between L1 and L66 samples and the wild type.

B1: CB7: anti-tau clone, SEQ ID NO: 364 (protein)
scFv: QVQLQESGPSLVKPSQTLSLTCTVSGFSLTNYRVGWVRQAPGKALEWVSNIRSGGTTWYNPALKSRLSITADTSKSQVSLSLSSVTTEDTAVYYCARDSSGDLYAYDYWGPGLLVTVSSEGKSSGASGESKVDDQAVLTQPSSVSRSLGQSVSMTCSGSSSNVGYGNYMAWFQQVPGSAPKLLIYGATSRASGVPDRFSGSRSGNTATLTISSLQAEDEADYYCASYDSTSGGVFGSGTRLTVLG
modifications: CB7 amino acid sequence
Western blot reactivity (tau [1]): specificity for human tau | cross-reaction with endogenous mouse tau protein (tau [2]): does not cross react with endogenous mouse tau protein | detection of tau in mouse brain homogenate (tau protein; listed as C-B7 scAb): hT40 tau was specifically detected in L66 samples | detection of tau in mouse brain homogenate (tau protein; listed as CB7 scAb): can specifically detect human tau in Line66 homozygous and heterozygous samples
